Entries after “also recorded” stand apart in the source; their conditions may differ. Non-standard residues stand in square brackets, D forms with d. No end group written: not given here. Met(O) = CS(=O)CC[C@H](N)C(=O)O

The target in this test is T1, full-length human pituitary G protein-coupled receptor protein (phGR3) expressed in CHO-19P2 cells (Homo sapiens, UniProt P49683).
T1 construct: a ligation reaction was carried out to construct a full-length receptor protein expression plasmid pAKKO-19P2; expressed in transfected cells
T1 sequence (P49683 1-370): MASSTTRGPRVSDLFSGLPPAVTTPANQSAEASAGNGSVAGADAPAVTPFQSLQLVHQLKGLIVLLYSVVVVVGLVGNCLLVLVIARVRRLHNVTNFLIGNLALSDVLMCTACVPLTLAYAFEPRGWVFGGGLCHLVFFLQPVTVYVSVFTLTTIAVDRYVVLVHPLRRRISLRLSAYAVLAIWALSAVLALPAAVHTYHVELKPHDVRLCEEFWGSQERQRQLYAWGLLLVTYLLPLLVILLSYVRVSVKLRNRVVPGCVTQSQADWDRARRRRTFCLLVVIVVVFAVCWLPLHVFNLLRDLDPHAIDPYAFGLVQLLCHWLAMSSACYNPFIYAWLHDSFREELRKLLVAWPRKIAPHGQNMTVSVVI
As to the kind of experiment: release of [3H] arachidonic acid metabolites from CHO-19P2 cells. Format: cell-based. As to conditions: synthetic peptide diluted with 0.05% BSA-HBSS to 10^−12M-10^−6M; radioactivity of [3H] arachidonic acid metabolites released in supernatant. Here is the method:
The full-length receptor protein-expressed CHO cells and mock CHO cells were seeded in a 24-well plate, 0.5×10^5 cells/well, and cultured for 24 hours. Then, [^3H] arachidonic acid was added at a final concentration of 0.25μCi/well. Sixteen (16) hours after addition of [^3H] arachidonic acid, the cells were rinsed with 0.05% BSA-HBSS and the above-mentioned crude peptide fraction was added, 400 μl/well. The mixture was incubated at 37 C. for 30 minutes and a 300 μl portion of the reaction mixture (400 μl) was added to a scintillator (4 ml) and the amount of [^3H] arachidonic acid metabolite released into the reaction mixture was determined with a scintillation counter. As a result, an arachidonic acid metabolite-releasing activity specific to the full-length receptor protein expressed CHO cells (CHO-19P2) was detected in the 30% CH3CN fraction of the eluate FIG. 16.
The activity of the peptide (19P2-L31) synthesized in Example 21 to specifically release arachidonic acid metabolites from CHO-19P2 cells was assayed in the same manner as Example 11. The synthetic peptide was dissolved in degassed distilled water at a concentration of 10^−3M and diluted with 0.05% BSA-HBSS and the activity to promote release of arachidonic acid metabolites from CHO-19P2 cells at each concentration was assayed using the amount of [^3H] arachidonic acid metabolites as the indicator.
The activity of the synthetic equivalent (19P2- L20) of natural peptide P-2 as synthesized in Example 23 to specifically promote release of arachidonic acid metabolites from CHO-19P2 cells was determined as in Example 11. Thus, the synthetic peptide was dissolved in degassed distilled water at a final concentration of 10^−3M and this solution was serially diluted with 0.05% BAS-HBSS. The activity to specifically promote release of arachidonic acid metabolites from CHO-19P2 cells at each concentration was assayed using the amount of [^3H] arachidonic acid metabolites as the indicator.
With “Thr-Pro-Asp-Ile-Asn-Pro-Ala-Trp-Tyr-Ala-Gly-Arg-Gly-Ile-Arg-Pro-Val-Gly-Arg-Phe-NH2 (TPDINPAWYAGRGIRPVGRF-NH2) [19P2-L20]”, the “activity to specifically promote release of arachidonic acid metabolites from CHO-19P2 cells” value is “concentration-dependent arachidonic acid metabolite-releasing activity was detected over the range of 10^−12 -10^−6M in nearly the same degree as 19P2-L31; also recorded: found in a dose-dependent manner”.
Then “Ser-Arg-Ala-His-Gln-His-Ser-Met(O)-Glu-Ile-Arg-Thr-Pro-Asp-Ile-Asn-Pro-Ala-Trp-Tyr-Ala-Gly-Arg-Gly-Ile-Arg-Pro-Val-Gly-Arg-Phe-NH2 (SRAHQHS[Met(O)]EIRTPDINPAWYAGRGIRPVGRF-NH2; N-terminus assumed; SMILES CC[C@H](C)[C@H](NC(=O)CNC(=O)[C@H](CCCNC(=N)N)NC(=O)CNC(=O)[C@H](C)NC(=O)[C@H](Cc1ccc(O)cc1)NC(=O)[C@H](Cc1c[nH]c2ccccc12)NC(=O)[C@H](C)NC(=O)[C@@H]1CCCN1C(=O)[C@H](CC(N)=O)NC(=O)[C@@H](NC(=O)[C@H](CC(=O)O)NC(=O)[C@@H]1CCCN1C(=O)[C@@H](NC(=O)[C@H](CCCNC(=N)N)NC(=O)[C@@H](NC(=O)[C@H](CCC(=O)O)NC(=O)[C@H](CCS(C)=O)NC(=O)[C@H](CO)NC(=O)[C@H](Cc1c[nH]cn1)NC(=O)[C@H](CCC(N)=O)NC(=O)[C@H](Cc1c[nH]cn1)NC(=O)[C@H](C)NC(=O)[C@H](CCCNC(=N)N)NC(=O)[C@@H](N)CO)[C@@H](C)CC)[C@@H](C)O)[C@@H](C)CC)C(=O)N[C@@H](CCCNC(=N)N)C(=O)N1CCC[C@H]1C(=O)N[C@H](C(=O)NCC(=O)N[C@@H](CCCNC(=N)N)C(=O)N[C@@H](Cc1ccccc1)C(N)=O)C(C)C) [19P2-L31(O), methionine-oxidation product of 19P2-L31]”, with “equivalent to the activity of 19P2-L31; also recorded: found in a dose-dependent manner”; and “Ser-Arg-Ala-His-Gln-His-Ser-Met-Glu-Ile-Arg-Thr-Pro-Asp-Ile-Asn-Pro-Ala-Trp-Tyr-Ala-Gly-Arg-Gly-Ile-Arg-Pro-Val-Gly-Arg-Phe-NH2 (SRAHQHSMEIRTPDINPAWYAGRGIRPVGRF-NH2) [19P2-L31]”, with “concentration-dependent arachidonic acid metabolite-releasing activity was detected over the range of 10^−12M -10^−6M; also recorded: found in a concentration-dependent manner”.

Values taken from patent publication US20020143152A1, “Polypeptides, their production and use” (priority 1997, published 2002).
